Results reported in US20240398949A1 (OSLO UNIVERSITETSSYKEHUS HF, published 2024).

Legend:
full-length HER2 = biological target: T1, full-length HER2 (Homo sapiens (Human), UniProt P04626 23-1255); test: flow cytometry on cell lines expressing full-length HER2, goat anti-rat-PE secondary
T1 construct: Endogenous HER2 on cell lines
Description: Cells were washed, pelleted down and resuspended in 100 μl FACS buffer (containing phosphate-buffered saline (PBS), pH 7, 2% FBS, and 2 mM EDTA). […] Cells were washed twice, resuspended in 100 μL FACS buffer containing secondary antibody goat anti-rat-PE (0.26 μg/ml) and Fixable Viability Dye eFluor™ 780 and incubated for 30 minutes in the dark at 4° C. Cells were washed, resuspended in 200 μL FACS buffer, and analyzed on a LSR II flow cytometer (BD Biosciences, Franklin Lakes, NJ, USA). Data were analyzed with FlowJo software (v10.7.1, FlowJo LLC).

[1] = biological target: T2, Peptide 5 of Table 3 (peptide of the p95HER2 extracellular domain); test: peptide array on cellulose membrane, overlapping 15mers, signal intensity (area under curve), triplicate spots
T2 construct: Synthetic peptide immobilized on a cellulose membrane
T2 peptide: INCTHSCVDLDDKG

[2] = biological target: T3, Peptide 6 of Table 3 (15mer of the p95HER2 extracellular domain); test: as above
T3 construct: Synthetic peptide immobilized on a cellulose membrane
T3 peptide: THSCVDLDDKGCPAE

[3] = biological target: T4, Peptide 3 of Table 3 (15mer of the p95HER2 extracellular domain); test: as above
T4 construct: Synthetic peptide immobilized on a cellulose membrane
T4 peptide: EEGACQPCPINCTHS

[4] = biological target: T5, Peptide 8 of Table 3 (15mer of the p95HER2 extracellular domain); test: as above
T5 construct: Synthetic peptide immobilized on a cellulose membrane
T5 peptide: DDKGCPAEQRASPLT

[5] = biological target: T6, Peptide 1 of Table 3 (15mer of the p95HER2 extracellular domain); test: as above
T6 construct: Synthetic peptide immobilized on a cellulose membrane
T6 peptide: MPIWKFPDEEGACQP

peptide 9 (FIGURE 3 d/e) = biological target: T7, peptide 9 (FIGURE 3 d/e); test: peptide array on cellulose membrane, truncation series, signal intensity (area under curve), duplicate spots
T7 peptide: MPIWKFPDEEGA

peptide 5 (FIGURE 3 d/e) = biological target: T8, peptide 5 (FIGURE 3 d/e); test: as above
T8 peptide: DLSYMPIWKFPDEEGA

peptide 3 (FIGURE 3 d/e) = biological target: T9, peptide 3 (FIGURE 3 d/e); test: as above
T9 peptide: KPDLSYMPIWKFPDEEGA

[6] = biological target: T10, Peptide 10 of Table 4 (N-terminal truncation, methionine-611 lost); test: as above
T10 peptide: PIWKFPDEEGA

[7] = biological target: T11, Peptide 1 of Table 4 (HER2 glycine-603 to alanine-622); test: as above
T11 construct: Parent peptide of the N-terminal truncation and double-alanine substitution series
T11 peptide: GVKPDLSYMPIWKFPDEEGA

peptide 6 (FIGURE 3 d/e) = biological target: T12, peptide 6 (FIGURE 3 d/e); test: as above
T12 peptide: LSYMPIWKFPDEEGA

peptide 8 (FIGURE 3 d/e) = biological target: T13, peptide 8 (FIGURE 3 d/e); test: as above
T13 peptide: YMPIWKFPDEEGA

[8] = biological target: T14, Peptide 11 of Table 4 (N-terminal truncation, proline-612 lost); test: as above
T14 peptide: IWKFPDEEGA

peptide 2 (FIGURE 3 d/e) = biological target: T15, peptide 2 (FIGURE 3 d/e); test: as above
T15 peptide: VKPDLSYMPIWKFPDEEGA

[9] = biological target: T16, Peptide 13 of Table 4 (N-terminal truncation, tryptophan-614 lost); test: as above
T16 peptide: KFPDEEGA

[10] = biological target: T17, peptide 16 (FIGURE 3 d/e); test: as above
T17 construct: also called DEEGA
T17 peptide: DEEGA

peptide 7 (FIGURE 3 d/e) = biological target: T18, peptide 7 (FIGURE 3 d/e); test: as above
T18 peptide: SYMPIWKFPDEEGA

[11] = biological target: T19, peptide 17 (FIGURE 3 d/e); test: as above
T19 construct: also called EEGA
T19 peptide: EEGA

[12] = biological target: T20, peptide 15 (FIGURE 3 d/e); test: as above
T20 construct: also called PDEEGA
T20 peptide: PDEEGA

[13] = biological target: T21, Peptide 12 of Table 4 (N-terminal truncation, isoleucine-613 lost); test: as above
T21 peptide: WKFPDEEGA

[14] = biological target: T22, peptide 14 (FIGURE 3 d/e); test: as above
T22 construct: also called FPDEEGA
T22 peptide: FPDEEGA

peptide 4 (FIGURE 3 d/e) = biological target: T23, peptide 4 (FIGURE 3 d/e); test: as above
T23 peptide: PDLSYMPIWKFPDEEGA

binding result [1]: no binding | binding result [2]: no binding | binding result [3]: no binding | binding result [4]: no binding | binding result [5]: binds | binding result (peptide 9 (FIGURE 3 d/e)): binds | binding result (peptide 5 (FIGURE 3 d/e)): binds | binding result (peptide 3 (FIGURE 3 d/e)): binds | binding result [6]: binds | binding result [7]: binds | binding result (peptide 6 (FIGURE 3 d/e)): binds | binding result (peptide 8 (FIGURE 3 d/e)): binds | binding result [8]: binds | binding result (peptide 2 (FIGURE 3 d/e)): binds | binding result [9]: no binding | binding result [10]: no binding | binding result (peptide 7 (FIGURE 3 d/e)): binds | binding result [11]: no binding | binding result [12]: no binding | binding result [13]: binds | binding result [14]: no binding | binding result (peptide 4 (FIGURE 3 d/e)): binds
B1: Oslo-2 antibody (monoclonal antibody against p95HER2) (antibody, V domains shown)
VH: EVQILETGGGLVKPGGSLRLSCATSGFNFNDYFMNWVRQAPGKGLEWIAQIRNKNYNYATYFAESLEGRFTISRDDSKSSVYLQVNSLRAEDTALYYCTELRYDYWGQGVMVTVSS
VL: DIVMTQSPFSLAVSEGEMVTINCKSSQSLLSSGNQKNNLAWYQQKPGQSPKLLIYYASTRQSGVPDRFIGSGSGTDFTLTISDVQAEDLADYYCLQHYSSPYTFGAGTKLELK
notes: Monoclonal antibody from a rat hybridoma (mClone 1), detected with goat anti-rat-PE; also called the antibody of interest; the antibody
binding result (full-length HER2): no binding (tested: 10 µg/ml (not on the sheet))
